Experiments:
[1] = target: p53, endogenous in 93-VU-147T HNSCC cells (human (endogenous in 93-VU-147T)) (UniProt P04637); experiment: co-IP
[2] = target: p53, endogenous in 92-VU-040T HNSCC cells (human (endogenous in 92-VU-040T)) (UniProt P04637); experiment: co-IP

fold change of the binding to p53 in PTTG-depleted cells against Scr shRNA cells [1]: 3.6 fold | fold change of the binding to p53 in PTTG-depleted cells against Scr shRNA cells [2]: 4 fold
B1: PBF, HA-tagged (natural protein)
chain: QEPPGAACSQNTNKTCEECLKNVSCLWCNTNKACLDYPVTSVLPPASLCKLSSARWGVCWVNFEALIITMSVVGGTLLLGIAICCCCCCRRKRSRKPDRSEEKAMREREERRIRQEERRAEMKTRHDEIRKKYGLFKEENPYARFENN
